Experimental data reported in patent publication US20020128189A1 (Harvard, published 2002).
Ends that are not written are not given here.

T1: LexA-E12477-654 (amino acids 477 to 654 of human E12 fused to LexA) (human, UniProt P15923 477-654)
T1 construct: not shown: LexA encoded by the LexA gene of pEG202, N-terminal fusion partner
T1 sequence (looked up): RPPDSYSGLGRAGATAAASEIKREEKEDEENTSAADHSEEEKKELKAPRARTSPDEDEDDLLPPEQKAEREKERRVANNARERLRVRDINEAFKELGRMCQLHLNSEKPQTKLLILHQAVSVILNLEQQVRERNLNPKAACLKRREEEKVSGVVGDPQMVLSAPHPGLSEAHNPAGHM

B1: Full-length human UBCH5 (interactant in the yeast two-hybrid interaction trap) (enzyme, not shown: large carriers)
chain: not shown

Columns and labels:
[1] = target: T2, AD-UBCE2A (full-length UBCE2A fused to the B42 transcription activation domain) (rat, UniProt P63279 1-158 (human entry)); assay: yeast two-hybrid interaction trap, beta-galactosidase
T2 construct: also called AD-UBCE2A library isolate; UBPCE2A
Excerpt: In order to assess the specificity of interaction and to map the interaction domains, cells of the yeast strain EGY48/pSH18-34 were transformed with the indicated bait constructs and library/interactant plasmids, and plated on Ura⁻ His⁻ Trp⁻ glucose plates. The bait constructs used in the specificity test were: LexA-Id3, which contains all of the Id3 coding sequence; LexA-c-Myc, which contains the C-terminal 137 amino acids of mouse c-Myc; LexA-Max, which contains all of the rat Max coding sequences; and LexA-Oct1, which includes amino acids 294-429 of human Oct 1 (containing the POU domain). Eight to twelve colonies from each bait/interactant combination were picked and plated in duplicate on Ura⁻ His⁻ Trp⁻ X-gal plates containing either 2% glucose or 2% galactose, 1% raffinose, and the color was assessed after 48 hours.
The specificity of the interaction partners was further examined by transforming yeast harboring expression plasmids encoding LexA fusions with various known HLH proteins. No interaction was detected with the HLH protein, Id3 (Christy et al., 1991, Proc. Natl. Acad. Sci. USA 88:1815-1819), the bHLH-leucine zipper protein, max (Blackwood et al., 1991, Science 251:1211-1217), or the homeodomain protein, Oct 1 (Sturm et al., 1988, Genes & Dev. 2:1582-1599); only weak promoter activity was discerned following introduction of LexA-myc. […]

[2] = target: T2, AD-UBCE2A (full-length UBCE2A fused to …); assay: yeast two-hybrid interaction trap
[3] = target: B1; assay: yeast two-hybrid interaction trap
[4] = target: T1, LexA-E12477-654 (amino acids 477 to 654 …); assay: yeast two-hybrid interaction trap

T2 sequence (P63279 whole entry, the tested form may be a part): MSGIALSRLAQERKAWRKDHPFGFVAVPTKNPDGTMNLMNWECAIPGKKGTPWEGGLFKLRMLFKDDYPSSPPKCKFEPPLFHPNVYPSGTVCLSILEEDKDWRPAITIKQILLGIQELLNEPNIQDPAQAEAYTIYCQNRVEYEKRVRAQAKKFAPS

Row | Binder | binding result [1] | binding result [2] | further results
1 | LexA-Oct1 (amino acids 294-429 of human Oct 1, containing the POU domain) (other, UniProt P14859 294-429, looked up, range 294-429; Bait for the specificity test; not shown: LexA encoded by the LexA gene of pEG202, N-terminal fusion partner) TFKQRRIKLGFTQGDVGLAMGKLYGNDFSQTTISRFEALNLSFKNMCKLKPLLEKWLNDAENLSSDSSLSSPSALNSPGIEGLSRRRKKRTSIETNIRVALEKSFLENQKPTSEEITMIADQLNMEKEVIRVWFCN | no binding | – | –
2 | LexA-E12539-654 (other, human, UniProt P15923 539-654, looked up, also called LexA-E12 lacking this region; not shown: LexA encoded by the LexA gene of pEG202, N-terminal fusion partner) PPEQKAEREKERRVANNARERLRVRDINEAFKELGRMCQLHLNSEKPQTKLLILHQAVSVILNLEQQVRERNLNPKAACLKRREEEKVSGVVGDPQMVLSAPHPGLSEAHNPAGHM | – | no binding | –
3 | LexA-Id3 (all of the Id3 coding sequence) (other, rat, UniProt P41138 1-119, looked up, Bait for the specificity test; not shown: LexA encoded by the LexA gene of pEG202, N-terminal fusion partner) MKALSPVRGCYEAVCCLSERSLAIARGRGKSPSAEEPLSLLDDMNHCYSRLRELVPGVPRGTQLSQVEILQRVIDYILDLQVVLAEPAPGPPDGPHLPIQTAELTPELVISKDKRSFCH | no binding | – | –
4 | LexA-E12477-530 (other, human, UniProt P15923 477-530, looked up, not shown: LexA encoded by the LexA gene of pEG202, N-terminal fusion partner) LexA-RPPDSYSGLGRAGATAAASEIKREEKEDEENTSAADHSEEEKKELKAPRARTSP | – | binds | binding result [3]: no binding
5 | B1 | – | – | binding result [4]: no binding
